Assay [1] deals with T1, human CD39 on cells (human, UniProt P49961 1-510).
T1 construct: One molecule for all cells that carry human CD39; the cell is named under assay; also called hCD39; cellular CD39
T1 sequence: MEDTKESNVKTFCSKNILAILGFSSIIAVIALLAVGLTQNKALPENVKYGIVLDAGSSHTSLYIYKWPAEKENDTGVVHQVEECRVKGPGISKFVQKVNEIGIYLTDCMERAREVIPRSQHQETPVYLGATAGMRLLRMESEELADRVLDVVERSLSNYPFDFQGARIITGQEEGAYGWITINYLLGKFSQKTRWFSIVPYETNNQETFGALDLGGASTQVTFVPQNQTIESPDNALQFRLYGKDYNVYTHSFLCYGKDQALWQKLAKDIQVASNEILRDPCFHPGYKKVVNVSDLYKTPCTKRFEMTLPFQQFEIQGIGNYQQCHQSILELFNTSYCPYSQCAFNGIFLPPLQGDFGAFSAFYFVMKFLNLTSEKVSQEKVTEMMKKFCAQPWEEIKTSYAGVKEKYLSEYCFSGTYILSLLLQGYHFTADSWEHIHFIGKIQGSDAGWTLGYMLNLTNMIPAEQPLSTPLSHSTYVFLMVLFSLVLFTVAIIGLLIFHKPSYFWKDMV
The assay can be described thus: flow cytometry, 100 nM IgG, hCD39-CHO cells; MFI ratio to parental CHO. The method, then:
(§1) 100 nanomolar IgGs (each antibody is indicated as a unique clone number in the FIG.) were incubated at […] 30 minutes on ice in phosphate buffered saline (PBS) with parental CHO cells or CHO cells engineered to express either human or cynomolgus macaque (Macaca fascicularis) CD39 (CHO CD39 cells). Cells were then washed with ice cold PBS and incubated with a fluorescently labeled goat-anti-human IgG for 20 minutes on ice. Cells were washed and resuspended in ice cold PBS prior to analysis by flow cytrometry.

The target in assay [2] is T2, cynomolgus macaque (Macaca fascicularis) CD39 on cells (cynomolgus macaque (Macaca fascicularis), UniProt P49961 7-510 (human entry)).
T2 construct: CHO cells engineered to express cyno CD39, or primary cyno B cells and monocytes; also called cyno CD39; cCD39
T2 chain: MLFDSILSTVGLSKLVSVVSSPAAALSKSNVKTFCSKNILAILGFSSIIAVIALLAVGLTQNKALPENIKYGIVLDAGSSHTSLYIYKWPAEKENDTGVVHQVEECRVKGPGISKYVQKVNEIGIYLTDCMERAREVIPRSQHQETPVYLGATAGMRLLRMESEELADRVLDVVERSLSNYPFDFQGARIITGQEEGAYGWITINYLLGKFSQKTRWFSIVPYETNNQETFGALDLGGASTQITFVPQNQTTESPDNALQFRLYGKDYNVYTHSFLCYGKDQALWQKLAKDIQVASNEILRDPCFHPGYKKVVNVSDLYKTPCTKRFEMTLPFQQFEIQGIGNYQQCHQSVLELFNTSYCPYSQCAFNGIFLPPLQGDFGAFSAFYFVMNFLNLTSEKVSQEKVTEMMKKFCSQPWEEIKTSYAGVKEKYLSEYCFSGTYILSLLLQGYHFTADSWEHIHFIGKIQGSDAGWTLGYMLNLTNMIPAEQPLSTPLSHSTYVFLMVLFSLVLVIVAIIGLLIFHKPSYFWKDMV
Kind of assay: flow cytometry, 100 nM IgG, cCD39-CHO cells; MFI ratio to parental CHO. How it is done:
as §1
(In general: A flow cytometer gives signals particle by particle.)

Assay [3] deals with T3, rhCD39-ECD-His (R&D Systems) (human, UniProt P49961 38-478).
T3 construct: Bought protein; that entry runs on through the C-terminal transmembrane and cytoplasmic residues; also called recombinant human CD39 extracellular domain; soluble recombinant human CD39 (ENTDP1) ECD; not shown: His tag
T3 sequence: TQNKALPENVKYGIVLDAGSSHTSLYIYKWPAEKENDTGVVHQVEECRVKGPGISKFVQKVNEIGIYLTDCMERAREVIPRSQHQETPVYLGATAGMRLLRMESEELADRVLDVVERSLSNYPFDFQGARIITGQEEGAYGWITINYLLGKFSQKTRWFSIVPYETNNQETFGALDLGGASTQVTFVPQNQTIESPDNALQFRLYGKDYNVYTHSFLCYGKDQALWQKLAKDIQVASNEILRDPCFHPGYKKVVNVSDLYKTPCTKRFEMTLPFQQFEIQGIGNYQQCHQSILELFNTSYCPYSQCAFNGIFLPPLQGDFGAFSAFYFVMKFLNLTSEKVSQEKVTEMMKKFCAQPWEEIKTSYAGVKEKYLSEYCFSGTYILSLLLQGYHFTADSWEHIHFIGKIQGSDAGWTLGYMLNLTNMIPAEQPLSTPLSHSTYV
The assay can be described thus: BLI (Octet), IgG on anti-human Fc sensor, rhCD39-ECD-His 10-300 nM, 1:1 fit. How it is done: The kinetic data was globally fit with a simple 1:1 Langmuir binding model to yield on-rate (kon) and off-rate (koff) values. The equilibrium dissociation constants (KD) were calculated from the kon and koff values.
Binding kinetics were measured using the Octet Red96 system (ForteBio) at 25° C. in running buffer (1× Pall ForteBio Kinetics Buffer diluted into PBS or Tris pH 7.4). […] After a short baseline step in running buffer, the sensors were exposed to varying concentrations (10-300 nM) of rhCD39-ECD-His (R&D Systems) for the association step. Dissociation of the complex was monitored upon exposure of the sensors to running buffer once again. Data was processed using ForteBio Octet software with baseline subtraction, global fit and 1:1 binding model to obtain association and dissociation rates. KD was calculated from the ratio of kd to kₐ.
A general note: BLI is a label-free optical method that tracks binding on a fibre tip over time.

Substitutions are numbered along the chain they refer to.

B1: 29852 (antibody, V domains shown)
VH: QVQLVQSGAEVKKPGSSVKVSCKASGGTFSAMAISWVRQAPGQGLEWMGGILPIAGTANYAQKFQGRVTITADESTSTAYMELSSLRSEDTAVYYCARGGAKYASTYGMDVWGQGTTVTVSS
VL: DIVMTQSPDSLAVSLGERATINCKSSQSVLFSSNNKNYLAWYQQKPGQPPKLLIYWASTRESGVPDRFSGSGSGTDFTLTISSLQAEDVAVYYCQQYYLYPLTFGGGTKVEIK
One may read the Kd as the concentration at which binding is half-saturated. By koff is commonly meant the first-order rate constant of dissociation. High values mean fast dissociation, low ones slow dissociation. What is called kon is a measure of how fast the partners come together. Low readings indicate slower complex formation, high ones faster complex formation. For B1, the “Cell Binding (FOB)” value in assay [1] stood at 337 FOB. For the same molecule, the “Cell Binding (FOB)” value in assay [2] was found to be 1420 FOB. Moreover, in assay [3], the Kd was found to be 0.266 nM, the koff is 0.000134 s⁻¹ and the kon turned out to be 503000 M⁻¹ s⁻¹.

B2: 28347 (antibody, V domains shown)
VH: B1 VH with A31S, M32L, L52I, A55F, S77N
VL: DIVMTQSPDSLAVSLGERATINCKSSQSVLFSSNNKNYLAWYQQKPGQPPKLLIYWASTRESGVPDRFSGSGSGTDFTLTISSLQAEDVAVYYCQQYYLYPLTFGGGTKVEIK
In the case of B2, in assay [1], the “Cell Binding (FOB)” value stood at 1020 FOB. Besides, the “Cell Binding (FOB)” value in assay [2] is 1340 FOB. In assay [3], this molecule showed a Kd of 9.05 nM, a koff of 0.00815 s⁻¹ and a kon of 901000 M⁻¹ s⁻¹.

B3: 27596 (antibody, V domains shown)
VH: QVQLVQSGAEVKKPGSSVKVSCKASGGTFSSYAISWVRQAPGQGLEWMGGIIPIFGTANYAQKFQGRVTITADESTSTAYMELSSLRSEDTAVYYCARDPLGIRKHWFDPWGQGTLVTVSS
VL: EIVMTQSPATLSLSPGERATLSCRASQSVSSYLAWYQQKPGQAPRLLIYDASNRATGIPARFSGSGSGTDFTLTISSLEPEDFAVYYCQQHTVWPITFGGGTKVEIKR
With B3, the “Cell Binding (FOB)” value in assay [1] turned out to be 252 FOB. Also, in assay [2], the “Cell Binding (FOB)” value was 257 FOB. In assay [3], this molecule returned a Kd of 31.1 nM, a koff of 0.0533 s⁻¹ and a kon of 1.72e+06 M⁻¹ s⁻¹.

B4: 27597 (antibody, V domains shown)
VH: QVQLVQSGAEVKKPGSSVKVSCKASGGTFSSYAISWVRQAPGQGLEWMGSIIPIFGTANYAQKFQGRVTITADESTSTAYMELSSLRSEDTAVYYCAREGRGYDSSRYYKFWFDPWGQGTLVTVSS
VL: B3 VL with M4L, H91F, T92V, V93L, I96R
In the case of B4, in assay [1], the “Cell Binding (FOB)” value was 799 FOB. Further, in assay [2], the “Cell Binding (FOB)” value was found to be 908 FOB. Besides, in assay [3], the Kd was determined as 335 nM, the koff was found to be 0.0914 s⁻¹ and the kon came out at 273000 M⁻¹ s⁻¹.

B5: 27550 (antibody, V domains shown)
VH: EVQLVESGGGLVKPGGSLRLSCAASGFTFSSYSMNWVRQAPGKGLEWVSSISSSSSYIYYADSVKGRFTISRDNAKNSLYLQMNSLRAEDTAVYYCARERRGSLALGMDVWGQGTLVTVSS
VL: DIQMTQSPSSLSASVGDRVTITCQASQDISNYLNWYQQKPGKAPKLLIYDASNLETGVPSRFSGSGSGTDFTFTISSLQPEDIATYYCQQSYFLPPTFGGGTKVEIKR
As for B5, in assay [1], the “Cell Binding (FOB)” value was determined as 2030 FOB. The “Cell Binding (FOB)” value in assay [2] came to 2870 FOB. In assay [3], the Kd worked out at 143 nM, the koff is 0.0633 s⁻¹ and the kon stood at 444000 M⁻¹ s⁻¹.

B6: 29871 (antibody, V domains shown)
VH: QVQLVQSGAEVKKPGASVKVSCKASGYTFQSYYMHWVRQAPGQGLEWMGKINPSGGSTWYAQKFQGRVTMTRDTSTSTVYMELSSLRSEDTAVYYCARGKREGGTEYLRHWGQGTLVTVSS
VL: EIVLTQSPGTLSLSPGERATLSCRASQSVSSSYLAWYQQKPGQAPRLLIYGASSRATGIPDRFSGSGSGTDFTLTISRLEPEDFAVYYCQQYHSYITFGGGTKVEIK
On to B6, for which, in assay [1], the “Cell Binding (FOB)” value turned out to be 451 FOB. Besides, the “Cell Binding (FOB)” value in assay [2] is 3350 FOB. In addition, in assay [3], binding was put at a Kd of 244 nM, the koff worked out at 0.0666 s⁻¹ and the kon is 273000 M⁻¹ s⁻¹.

B7: 31421 (antibody, V domains shown)
VH: B6 VH with Q30F, H35Y, K50V, S54L, S57G, W59S
VL: B6 VL with R24K, Q27E, G51Y, S94R, Y95R
Turning to B7, in assay [1], the “Cell Binding (FOB)” value is 1080 FOB. Further, the “Cell Binding (FOB)” value in assay [2] was 3050 FOB. In assay [3], this molecule gave a Kd of 18.8 nM, a koff of 0.00526 s⁻¹ and a kon of 281000 M⁻¹ s⁻¹.

B8: 27590 (antibody, V domains shown)
VH: QVQLVQSGAEVKKPGSSVKVSCKASGGTFSNYAISWVRQAPGQGLEWMGGIIPIFGTANYAQKFQGRVTITADESTSTAYMELSSLRSEDTAVYYCARGPTVTATTSIGTHNWFDPWGQGTLVTVSS
VL: EIVLTQSPATLSLSPGERATLSCRASQSVSSYLAWYQQKPGQAPRLLIYDASNRATGIPARFSGSGSGTDFTLTISSLEPEDFAVYYCQQRNFYPPTFGGGTKVEIK
As for B8, the “Cell Binding (FOB)” value in assay [1] worked out at 33 FOB. For the same molecule, the “Cell Binding (FOB)” value in assay [2] was determined as 44 FOB. Further, in assay [3], binding was put at a Kd of 131 nM, the koff was determined as 0.023 s⁻¹ and the kon amounted to 176000 M⁻¹ s⁻¹.

B9: 27577 (antibody, V domains shown)
VH: QVQLVQSGAEVKKPGSSVKVSCKASGGAFSSYAIGWVRQAPGQGLEWMGGIIPTFGTANYAQKFQGRVTITADESTSTAYMELSSLRSEDTAVYYCARDGGGYQHHYFDLWGRGTLVTVSS
VL: EIVMTQSPATLSVSPGERATLSCRASQSVGSNLAWYQQKPGQAPRLLIYGASTRATGIPARFSGSGSGTEFTLTISSLQSEDFAVYYCQQLTKWPLTFGGGTKVEIKR
With B9, the “Cell Binding (FOB)” value in assay [1] was 390 FOB. Further, the “Cell Binding (FOB)” value in assay [2] worked out at 339 FOB. Also, in assay [3], the affinity, expressed as Kd, was 409 nM; the koff worked out at 0.365 s⁻¹; the kon stood at 893000 M⁻¹ s⁻¹.

B10: 27589 (antibody, V domains shown)
VH: QVQLVQSGAEVKKPGSSVKVSCKASGGTFSSYAISWVRQAPGQGLEWMGGIIPIFGTANYAQKFQGRVTITADESTSTAYMELSSLRSEDTAVYYCARDSGYHRHYSDYWGQGTLVTVSS
VL: DIQMTQSPSTLSASVGDRVTITCRASQSISSWLAWYQQKPGKAPKLLIYKASSLESGVPSRFSGSGSGTEFTLTISSLQPDDFATYYCQQYGLFPITFGGGTKVEIKR
Regarding B10, the “Cell Binding (FOB)” value in assay [1] was 311 FOB. Besides, the “Cell Binding (FOB)” value in assay [2] is 531 FOB. In assay [3], this molecule registered a Kd of 191 nM, a koff of 0.0385 s⁻¹ and a kon of 202000 M⁻¹ s⁻¹.

B11: 27571 (antibody, V domains shown)
VH: QVQLVQSGAEVKKPGSSVKASCKASGGTFSSYAISWVRQAPGQGLEWMGSIIPIFGTANYAQKFRGRVTITADESTSTTYMELSSLRSEDTAVYYCARESGGYRDHRLDVWGQGTMVTVSS
VL: EIVMTQSPATLSVSPGERATLSCRASQSVGSNLAWYQQKPGQAPRLLIYGASTRATGIPARFSGSGSGTEFTLTISSLQSEDFAVYYCQQYLIWPLTFGGGTKVEIK
B11: the “Cell Binding (FOB)” value in assay [1] came to 1400 FOB. Moreover, in assay [2], the “Cell Binding (FOB)” value turned out to be 1610 FOB. In assay [3], this molecule showed a Kd of 16.4 nM, a koff of 0.0105 s⁻¹ and a kon of 639000 M⁻¹ s⁻¹.

B12: 27588 (antibody, V domains shown)
VH: QVQLVQSGAEVKKPGSSVKVSCKASGGTFSNYAISWVRQAPGQGLEWMGGIIPIFGTANYAQKFQGRVTITADESTSTAYMELSSLRSEDTAVYYCARAKRGYDSYGGVYFDYWGQGTLVTVSS
VL: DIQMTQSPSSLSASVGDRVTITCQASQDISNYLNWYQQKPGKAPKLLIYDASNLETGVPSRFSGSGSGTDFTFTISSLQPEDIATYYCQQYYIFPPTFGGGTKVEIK
Regarding B12, the “Cell Binding (FOB)” value in assay [1] worked out at 10 FOB. In addition, in assay [2], the “Cell Binding (FOB)” value was 14 FOB. In assay [3], this molecule came in with a Kd of 54.9 nM, a koff of 0.00644 s⁻¹ and a kon of 117000 M⁻¹ s⁻¹.

(Values after patent US20250026850A1 (TRISHULA THERAPEUTICS, published 2025).)
